Measured values as given in the supplement of paper PMC10567573.

B1: EPB41L3 (parent)
chain: SDYISEFRFAPNHTKELEDKVIEL
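Further: lentivirally expressed fusions sorted by FACS into six bins by GFP to DsRed ratio, PSI derived from sequencing read proportions per bin multiplied by bin number.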

Variants of: B1
Test: protein stability index of a GFP-peptide fusion (GPS, HEK-293T) (PSI 1-6); higher = more stable
Details: c terminus: a fixed tail appended
Work on SDYISEFRFAPGHTKELEDKVIEL [N12G] yielded a protein stability index of 1.83. SDYISEFRFAPRHTKELEDKVIEL [N12R] showed a protein stability index of 1.43. Variant SDYISEFRFAPPHTKELEDKVIEL [N12P] has a protein stability index of 2.19. SDYISEFRFAPIHTKELEDKVIEL [N12I] gave a protein stability index of 1.82. For SDYISEFRFAPSHTKELEDKVIEL [N12S], the protein stability index was 2.21. Work on SDYISEFRFAPAHTKELEDKVIEL [N12A] yielded a protein stability index of 2.2. Work on SDYISEFRFAPHHTKELEDKVIEL [N12H] yielded a protein stability index of 1.95. Work on SDYISEFRFAPEHTKELEDKVIEL [N12E] yielded a protein stability index of 3.54. SDYISEFRFAPFHTKELEDKVIEL [N12F] showed a protein stability index of 1.9. For SDYISEFRFAPTHTKELEDKVIEL [N12T], the protein stability index was 2.2. Work on SDYISEFRFAPMHTKELEDKVIEL [N12M] yielded a protein stability index of 1.89. With SDYISEFRFAPLHTKELEDKVIEL [N12L] the protein stability index was 2.2. With SDYISEFRFAPDHTKELEDKVIEL [N12D] the protein stability index was 3.9. SDYISEFRFAPCHTKELEDKVIEL [N12C] showed a protein stability index of 1.47. Variant SDYISEFRFAPVHTKELEDKVIEL [N12V] has a protein stability index of 2.23. SDYISEFRFAPKHTKELEDKVIEL [N12K] showed a protein stability index of 2.18. With SDYISEFRFAPWHTKELEDKVIEL [N12W] the protein stability index was 1.5. SDYISEFRFAPQHTKELEDKVIEL [N12Q] gave a protein stability index of 2.35. Work on SDYISEFRFCPNHTKELEDKVIEL [A10C] yielded a protein stability index of 1.56. With SDYISEFRFPPNHTKELEDKVIEL [A10P] the protein stability index was 3.96. With SDYISEFRFVPNHTKELEDKVIEL [A10V] the protein stability index was 1.84. SDYISEFRFGPNHTKELEDKVIEL [A10G] showed a protein stability index of 3.92. With SDYISEFRFIPNHTKELEDKVIEL [A10I] the protein stability index was 2.33. In the case of SDYISEFRFDPNHTKELEDKVIEL [A10D], the protein stability index is reported as 4.37. SDYISEFRFEPNHTKELEDKVIEL [A10E] showed a protein stability index of 4.21. Variant SDYISEFRFWPNHTKELEDKVIEL [A10W] has a protein stability index of 2.96. In the case of SDYISEFRFRPNHTKELEDKVIEL [A10R], the protein stability index is reported as 3.54. With SDYISEFRFTPNHTKELEDKVIEL [A10T] the protein stability index was 2.05. SDYISEFRFMPNHTKELEDKVIEL [A10M] gave a protein stability index of 3. SDYISEFRFSPNHTKELEDKVIEL [A10S] showed a protein stability index of 2.61. SDYISEFRFFPNHTKELEDKVIEL [A10F] showed a protein stability index of 3.3. SDYISEFRFHPNHTKELEDKVIEL [A10H] gave a protein stability index of 1.86. SDYISEFRFKPNHTKELEDKVIEL [A10K] showed a protein stability index of 3.99. Work on SDYISEFRFQPNHTKELEDKVIEL [A10Q] yielded a protein stability index of 2.35. Variant SDYISEFRFLPNHTKELEDKVIEL [A10L] has a protein stability index of 3.45. With SDYISEFRFYPNHTKELEDKVIEL [A10Y] the protein stability index was 3.09. Work on SDYISEFRFNPNHTKELEDKVIEL [A10N] yielded a protein stability index of 3.33. Variant SDYISQFRFAPNHTKELEDKVIEL [E6Q] has a protein stability index of 2.02. For SDYISPFRFAPNHTKELEDKVIEL [E6P], the protein stability index was 2.43. Work on SDYISTFRFAPNHTKELEDKVIEL [E6T] yielded a protein stability index of 1.82. SDYISHFRFAPNHTKELEDKVIEL [E6H] showed a protein stability index of 1.43. Work on SDYISDFRFAPNHTKELEDKVIEL [E6D] yielded a protein stability index of 1.93. Work on SDYISYFRFAPNHTKELEDKVIEL [E6Y] yielded a protein stability index of 1.84. For SDYISNFRFAPNHTKELEDKVIEL [E6N], the protein stability index was 1.83. In the case of SDYISAFRFAPNHTKELEDKVIEL [E6A], the protein stability index is reported as 1.67. Variant SDYISVFRFAPNHTKELEDKVIEL [E6V] has a protein stability index of 2.06. With SDYISFFRFAPNHTKELEDKVIEL [E6F] the protein stability index was 1.52. With SDYISIFRFAPNHTKELEDKVIEL [E6I] the protein stability index was 2.12. SDYISGFRFAPNHTKELEDKVIEL [E6G] showed a protein stability index of 2.28. Work on SDYISKFRFAPNHTKELEDKVIEL [E6K] yielded a protein stability index of 1.85. In the case of SDYISRFRFAPNHTKELEDKVIEL [E6R], the protein stability index is reported as 2.13. SDYISCFRFAPNHTKELEDKVIEL [E6C] gave a protein stability index of 1.92. SDYISWFRFAPNHTKELEDKVIEL [E6W] gave a protein stability index of 2.23. For SDYISMFRFAPNHTKELEDKVIEL [E6M], the protein stability index was 1.92. In the case of SDYISSFRFAPNHTKELEDKVIEL [E6S], the protein stability index is reported as 2. In the case of SDYISLFRFAPNHTKELEDKVIEL [E6L], the protein stability index is reported as 1.84. Work on SDYISEERFAPNHTKELEDKVIEL [F7E] yielded a protein stability index of 4.96. With SDYISEDRFAPNHTKELEDKVIEL [F7D] the protein stability index was 4.89. Variant SDYISEMRFAPNHTKELEDKVIEL [F7M] has a protein stability index of 4. Variant SDYISEPRFAPNHTKELEDKVIEL [F7P] has a protein stability index of 4.75. Variant SDYISEIRFAPNHTKELEDKVIEL [F7I] has a protein stability index of 3.94. SDYISEGRFAPNHTKELEDKVIEL [F7G] showed a protein stability index of 4.91. Work on SDYISEQRFAPNHTKELEDKVIEL [F7Q] yielded a protein stability index of 4.79. SDYISESRFAPNHTKELEDKVIEL [F7S] showed a protein stability index of 4.12. In the case of SDYISELRFAPNHTKELEDKVIEL [F7L], the protein stability index is reported as 3.6. For SDYISERRFAPNHTKELEDKVIEL [F7R], the protein stability index was 4.4. With SDYISEVRFAPNHTKELEDKVIEL [F7V] the protein stability index was 4.46. Variant SDYISEARFAPNHTKELEDKVIEL [F7A] has a protein stability index of 4.4. SDYISEHRFAPNHTKELEDKVIEL [F7H] showed a protein stability index of 4.26. Variant SDYISEKRFAPNHTKELEDKVIEL [F7K] has a protein stability index of 4.38. Variant SDYISETRFAPNHTKELEDKVIEL [F7T] has a protein stability index of 4.57. SDYISENRFAPNHTKELEDKVIEL [F7N] gave a protein stability index of 4.96. SDYISEYRFAPNHTKELEDKVIEL [F7Y] showed a protein stability index of 3.71. SDYISECRFAPNHTKELEDKVIEL [F7C] gave a protein stability index of 4.2. SDYISEWRFAPNHTKELEDKVIEL [F7W] showed a protein stability index of 2.42. For SDYIPEFRFAPNHTKELEDKVIEL [S5P], the protein stability index was 2.24. SDYIHEFRFAPNHTKELEDKVIEL [S5H] gave a protein stability index of 2.15. With SDYIREFRFAPNHTKELEDKVIEL [S5R] the protein stability index was 2.62. SDYIEEFRFAPNHTKELEDKVIEL [S5E] gave a protein stability index of 3.79. Variant SDYINEFRFAPNHTKELEDKVIEL [S5N] has a protein stability index of 2.22. With SDYITEFRFAPNHTKELEDKVIEL [S5T] the protein stability index was 2.18. For SDYIIEFRFAPNHTKELEDKVIEL [S5I], the protein stability index was 2.02. With SDYIFEFRFAPNHTKELEDKVIEL [S5F] the protein stability index was 1.74. With SDYICEFRFAPNHTKELEDKVIEL [S5C] the protein stability index was 1.97. SDYIKEFRFAPNHTKELEDKVIEL [S5K] gave a protein stability index of 2.75. SDYIDEFRFAPNHTKELEDKVIEL [S5D] gave a protein stability index of 3.8. In the case of SDYIQEFRFAPNHTKELEDKVIEL [S5Q], the protein stability index is reported as 2.7. For SDYIMEFRFAPNHTKELEDKVIEL [S5M], the protein stability index was 1.27. SDYIGEFRFAPNHTKELEDKVIEL [S5G] gave a protein stability index of 1.8. Work on SDYIWEFRFAPNHTKELEDKVIEL [S5W] yielded a protein stability index of 1.82. For SDYIYEFRFAPNHTKELEDKVIEL [S5Y], the protein stability index was 1.66. In the case of SDYILEFRFAPNHTKELEDKVIEL [S5L], the protein stability index is reported as 1.92. SDYIAEFRFAPNHTKELEDKVIEL [S5A] gave a protein stability index of 1.93. With SDYIVEFRFAPNHTKELEDKVIEL [S5V] the protein stability index was 2.19.
